Paper PMC10648788, “Ahf-Caltide, a Novel Polypeptide Derived from Calpastatin, Protects against Oxidative Stress Injury by Stabilizing the Expression of CaV1.2 Calcium Channel” (International Journal of Molecular Sciences, 2023)

T1: GST-IQ, IQ motif of the CaV1.2 channel alpha1 subunit (UniProt O35505 1648-1668)
T1 construct: CaV1.2 calcium channel alpha1 subunit, IQ motif, a.a; 1648-1668, GenBank AB016287; also called IQ domain; source: E. coli BL21, purified (Glutathione Sepharose 4B)
T1 chain (looked up): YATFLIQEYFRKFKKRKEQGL

B1: GST-NT, N terminus of the CaV1.2 channel alpha1 subunit (domain or fragment, UniProt O35505 6-140, looked up)
chain: QPTTPAYRPLPSHLSADTEVRGRGTLVHEAQLNCFYISPGGSNYGSPRPAHANINANAAAGLAPEHIPTPGAALSWQAAIDAGRQAKLMGSAGNTTISTVSSTQRKRQQYGKPKKQSGTTATRPPRALLCLTLKN
notes: CaV1.2 calcium channel alpha1 subunit, N terminus (NT), a.a; 6-140, GenBank AB016287; source: E. coli BL21, purified (Glutathione Sepharose 4B)
B2: Calpastatin (CAST) domain L (domain or fragment, UniProt P20810 3-148, looked up)
chain: PTETKAIPVSQQMEGPHLPNKKKHKKQAVKTEPEKKSQSTKLSVVHEKKSQEGKPKEHTEPKSLPKQASDTGSNDAHNKKAVSRSAEQQPSEKSTEPKTKPQDMISAGGESVAGITAISGKPGDKKKEKKSLTPAVPVESKPDKPS
notes: calpastatin (CAST) domain L (CSL), a.a; In the H2O2 experiments CSL was incubated with H2O2 present; The chemical change is not defined; also called CSL; source: E. coli BL21, purified (Glutathione Sepharose 4B), GST removed using PreScission protease

Columns and labels:
Details in all cases: both partners purified
[1] = target: B2; test: pull-down; GST-NT (15 ug) incubated with CSL 0-30 uM for 4 h in 400 uL Tris buffer, [Ca2+] 1 mM; Coomassie-stained gel quantified; one-site fit, apparent Kd
[2] = target: B2; test: pull-down; GST-NT (15 ug) incubated with CSL 0-30 uM for 4 h in 400 uL Tris buffer, [Ca2+] 10 uM; Coomassie-stained gel quantified; one-site fit, apparent Kd
[3] = target: B2; test: pull-down; GST-NT (15 ug) incubated with CSL 0-30 uM for 4 h in 400 uL Tris buffer, [Ca2+] 25 nM; Coomassie-stained gel quantified; one-site fit, apparent Kd
[4] = target: B1; test: pull-down; GST fusion (15 ug) with 10 uM CSL in 400 uL Tris buffer, 4 C, 4 h; [Ca2+] 10 uM, H2O2 0 M; Coomassie-stained gel quantified
[5] = target: T2, GST-CT1, proximal portion of the C terminus of the CaV1.2 channel alpha1 subunit (UniProt O35505 1509-1789); test: as above
T2 construct: CaV1.2 calcium channel alpha1 subunit, CT1 (proximal portion of CT), a.a; 1509-1789, GenBank AB016287; source: E. coli BL21, purified (Glutathione Sepharose 4B)

[6] = target: T3, GST-PreIQ, PreIQ motif of the CaV1.2 channel alpha1 subunit (UniProt O35505 1599-1639); test: as above
T3 construct: CaV1.2 calcium channel alpha1 subunit, PreIQ motif, a.a; 1599-1639, GenBank AB016287; source: E. coli BL21, purified (Glutathione Sepharose 4B)

[7] = target: T1, GST-IQ, IQ motif of the CaV1.2 channel …; test: as above
[8] = target: B1; test: pull-down; GST fusion (15 ug) with 10 uM CSL in 400 uL Tris buffer, 4 C, 4 h; [Ca2+] 10 uM, H2O2 10^-1 M; Coomassie-stained gel quantified
[9] = target: T2, GST-CT1, proximal portion of the C …; test: as above
[10] = target: T3, GST-PreIQ, PreIQ motif of the CaV1.2 …; test: as above
[11] = target: T1, GST-IQ, IQ motif of the CaV1.2 channel …; test: as above
[12] = target: B1; test: pull-down; GST fusion (15 ug) with 10 uM CSL in 400 uL Tris buffer, 4 C, 4 h; [Ca2+] 10 uM, H2O2 10^-2 M; Coomassie-stained gel quantified
[13] = target: T2, GST-CT1, proximal portion of the C …; test: as above
[14] = target: T3, GST-PreIQ, PreIQ motif of the CaV1.2 …; test: as above
[15] = target: T1, GST-IQ, IQ motif of the CaV1.2 channel …; test: as above

T3 sequence (O35505 1599-1639): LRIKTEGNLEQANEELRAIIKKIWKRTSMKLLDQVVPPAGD
T2 sequence (O35505 1509-1789): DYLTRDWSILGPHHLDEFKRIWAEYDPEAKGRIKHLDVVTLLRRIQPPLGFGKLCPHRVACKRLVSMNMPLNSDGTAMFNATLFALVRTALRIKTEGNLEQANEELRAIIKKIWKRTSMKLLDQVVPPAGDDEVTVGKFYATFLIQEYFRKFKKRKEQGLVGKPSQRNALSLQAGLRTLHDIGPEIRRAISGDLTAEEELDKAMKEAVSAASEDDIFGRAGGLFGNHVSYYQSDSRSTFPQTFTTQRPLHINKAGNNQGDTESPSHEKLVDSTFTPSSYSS

B1
Kd [1]: 1320 nM | Kd [2]: 1480 nM | Kd [3]: 1110 nM

B2
binding density of CSL [4]: 0.46 | binding density of CSL [5]: 0.52 | binding density of CSL [6]: 0.16 | binding density of CSL [7]: 0.15 | binding density of CSL [8]: 0.46 | binding density of CSL [9]: 0.68 | binding density of CSL [10]: 0.16 | binding density of CSL [11]: 0.26 | binding density of CSL [12]: 0.46 | binding density of CSL [13]: 1.12 | binding density of CSL [14]: 0.16 | binding density of CSL [15]: 0.34
